Changes are numbered by the printed parent chain. Values belong to the binder of their own block, whether it stands above or below them.
Biological target: T1, human plasma kallikrein (human, UniProt P03952 20-390; P03952 391-638)
T1 construct: two disulfide-linked chains; NP_000883.2; also called pKal; hpKal
Assay: ELISA, biotinylated pKal signal over streptavidin background

T1 sequence (P03952 20-390 limits assumed, chain 1 of 2): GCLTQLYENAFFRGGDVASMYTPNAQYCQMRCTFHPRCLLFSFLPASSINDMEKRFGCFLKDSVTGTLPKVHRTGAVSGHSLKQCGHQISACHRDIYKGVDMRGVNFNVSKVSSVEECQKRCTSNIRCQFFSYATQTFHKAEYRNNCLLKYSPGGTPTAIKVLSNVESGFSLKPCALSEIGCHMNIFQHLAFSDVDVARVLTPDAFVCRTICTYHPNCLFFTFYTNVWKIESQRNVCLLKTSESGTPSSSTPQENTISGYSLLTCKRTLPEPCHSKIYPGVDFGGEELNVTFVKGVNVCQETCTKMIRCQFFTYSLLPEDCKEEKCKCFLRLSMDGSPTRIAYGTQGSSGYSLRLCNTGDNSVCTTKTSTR
T1 sequence (P03952 391-638 limits assumed, chain 2 of 2): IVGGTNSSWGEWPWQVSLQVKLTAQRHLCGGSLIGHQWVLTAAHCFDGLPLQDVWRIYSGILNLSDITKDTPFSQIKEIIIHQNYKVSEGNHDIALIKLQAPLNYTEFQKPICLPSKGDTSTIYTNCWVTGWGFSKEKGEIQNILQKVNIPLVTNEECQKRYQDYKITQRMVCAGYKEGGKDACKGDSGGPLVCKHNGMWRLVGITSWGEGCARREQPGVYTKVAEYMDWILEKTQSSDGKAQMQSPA

ELISA (T/B): 9.9
B1: M12-D10 (Fab, V domains shown)
VH: EVQLLESGGGLVQPGGSLRLSCAASGFTFSNYPMDWVRQAPGKGLEWVSSISSSGGWTNYADSVKGRFTISRDNSKNTLYLQMNSLRAEDTAVYYCATDTSGSYLGFDYWGQGTLVTVSS
VL: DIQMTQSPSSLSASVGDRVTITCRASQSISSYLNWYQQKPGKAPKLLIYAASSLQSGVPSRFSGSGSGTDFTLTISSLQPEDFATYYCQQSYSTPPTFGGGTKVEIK

ELISA (T/B): 3.2
B2: M27-A10 (Fab, V domains shown)
VH: EVQLLESGGGLVQPGGSLRLSCAASGFTFSWYRMDWVRQAPGKGLEWVSSIWPSGGLTSYADSVKGRFTISRDNSKNTLYLQMNSLRAEDTAVYYCARGWAPGGDAFDIWGQGTMVTVSS
VL: DIQMTQSPSSLSASVGDRVTITCRASQSISAYLNWYQQKPGKAPQLLMYGVGSLQSGVPSRFSGSGSGTDFTLTISSLQPEDFATYFCQQGYTTPVTFGGGTKVEIK

ELISA (T/B): 4.1
B3: M27-G04 (Fab, V domains shown)
VH: EVQLLESGGGLVQPGGSLRLSCAASGFTFSAYYMVWVRQAPGKGLEWVSYISPSGGQTQYADSVKGRFTISRDNSKNTLYLQMNSLRAEDTAVYYCAREAISSSSFDYWGQGTLVTVSS
VL: DIQMTQSPSSLSASVGDRVTITCRASQRISYYLTWYQQKPGKVPKLLIYAASSLESGVPSRFSGSGSGTDFTLTISNLQPEDFATYYCQQAFSTPFTFGGGTKVEIK

ELISA (T/B): 40.4
B4: M12-A08 (Fab, V domains shown)
VH: EVQLLESGGGLVQPGGSLRLSCAASGFTFSWYYMGWVRQAPGKGLEWVSWIVSSGGLTLYADSVKGRFTISRDNSKNTLYLQMNSLRAEDTAMYYCARTTVTTGDAFDIWGQGTMVTVSS
VL: DIQMTQSPSSLSASVGDRVTITCRASQSISRYLNWYQQKPGKAPKLLIYAASTLETGVPSRFSGSGSGTDFTLTITTLQPEDFVIYYCQQSYSTPYTFGQGTKLEIK

ELISA (T/B): 31.4
B5: M27-G01 (Fab, V domains shown)
VH: EVQLLESGGGLVQPGGSLRLSCAASGFTFSLYRMFWVRQAPGKGLEWVSSIWSSGGPTMYADSVKGRFTISRDNSKNTLYLQMNSLRAEDTAVYYCAREYPSTYYFDYWGQGTLVTVSS
VL: B4 VL with R31T, A50G, T53S, E55Q, T56S, T76S, T77S, V84T, T94D, E105D

ELISA (T/B): 2.2
B6: M27-G09 (Fab, V domains shown)
VH: EVQLLESGGGLVQPGGSLRLSCAASGFTFSEYDMAWVRQAPGKGLEWVSYIVSSGGFTSYADSVKGRFTISRDNSKNTLYLQMNSLRAEDTAVYYCTTWAGWIAAADYWGQGTLVTVSS
VL: DIQMTQSPSSVSASVGDRITITCRTRQSISNYLNWYQQKPGEPPKLLIFAASSLQSGVPSRFSGSGTGTEFTLTISSLQPEDLAIYYCQQSYDIPFTFGQGTKLEIK

ELISA (T/B): 8.3
B7: M12-C10 (Fab, V domains shown)
VH: EVQLLESGGGLVQPGGSLRLSCAASGFTFSDYEMHWVRQAPGKGLEWVSGISPSGGKTQYADSVKGRFTISRDNSKNTLYLQMNSLRAEDTAVYYCARDLKWGGRGSPDWYFDLWGRGTLVTVSS
VL: QSALTQPPSVSVSPGQTASITCSGDKLGEKYVSWYQQKPGQSPVVVIYQDNKRPSGIPERFSGSNSGNTATLTISGTQAVDEADYYCQAWDSYTVVFGGGSKLTVLG

ELISA (T/B): 48
B8: M12-E06 (Fab, V domains shown)
VH: EVQLLESGGGLVQPGGSLRLSCAASGFTFSQYKMLWVRQAPGKGLEWVSGIGPSGGLTAYADSVKGRFTISRDNSKNTLYLQMNSLRAEDTAVYYCARAPWFGELGMDVWGQGTTVTVSS
VL: DIQMTQSPSSLSASVGDRVSITCRASQSISTYLNWYQHKPGKAPTLLIYGAFSLQSGVPSRFSGSGSGTDFALTISSLQPEDFATYYCQQSHSTPPTFGQGTRVEIK

ELISA (T/B): 10
B9: M27-F11 (Fab, V domains shown)
VH: EVQLLESGGGLVQPGGSLRLSCAASGFTFSSYHMMWVRQAPGKGLEWVSSIYPSGGATMYADSVKGRFTISRDNSKNTLYLQMNSLRAEDTAMYYCARDGYHYGDYTYFQHWGQGTLVTVSS
VL: DIQMTQSPSFLSASVGDRVTITCRASQGISSYLAWYQQKPGKAPKLLIYAASSLQSGVPSRFSGSGSGTDFTLTISSLQPEDFATYYCQQSYNTLRTFGPGTKVDLK

ELISA (T/B): 7
B10: M12-C09 (Fab, V domains shown)
VH: EVQLLESGGGLVQPGGSLRLSCAASGFTFSSYAMVWVRQAPGKGLEWVSSIGSSGGFTLYADSVKGRFTISRDNSKNTLYLQMNSLRAEDTAVYYCASMNLGGGDAFDIWGQGTMVTVSS
VL: DIQMTQSPSSLSASVGDRVTITCRASQSIGIYLNWYHQKPGKAPNLLIYGASSLQSGVPSRFSGSGSGTDFTLTISSLQPGDFATYYCQHSYSTPFTFGGGTKVEIK

ELISA (T/B): 4.9
B11: M11-G12 (Fab, V domains shown)
VH: EVQLLESGGGLVQPGGSLRLSCAASGFTFSQYPMNWVRQAPGKGLEWVSSISSSGGFTTYADSVKGRFTISRDNSKNTLYLQMNSLRAEDTAVYYCAREEQQGGFDYWGQGTLVTVSS
VL: DIQMTQSPSSLSAFVGDRVSITCRASQTISVYVNWYQHKSGQAPKLLIYGASSLQSGVPSRFSGSGSGTDFTLTISSLQPEDFATYFCQQSYSIPFTFGGGTDVQIR

ELISA (T/B): 18
B12: M12-B04 (Fab, V domains shown)
VH: EVQLLESGGGLVQPGGSLRLSCAASGFTFSLYSMYWVRQAPGKGLEWVSRIRPSGGGTVYADSVKGRFTISRDNSKNTLYLQMNSLRAEDTAVYYCARDPLYSSGDVWGQGTTVTVSS
VL: DIQMTQSPSSLSASVGDRVTITCRASQGIRNDLGWYQHKPGKAPKLLIYAASILQSGVPSRFSGTASGTDFTLTISSLQPEDFATYFCLQDYEYPLTFGGGTKLDIK

ELISA (T/B): 35.9
B13: M27-E03 (Fab, V domains shown)
VH: EVQLLESGGGLVQPGGSLRLSCAASGFTFSSYMMHWVRQAPGKGLEWVSGIYPSGGWTDYADSVKGRFTISRDNSKNTLYLQMNSLRAEDTATYYCARLVAGLDAFDIWGQGTMVTVSS
VL: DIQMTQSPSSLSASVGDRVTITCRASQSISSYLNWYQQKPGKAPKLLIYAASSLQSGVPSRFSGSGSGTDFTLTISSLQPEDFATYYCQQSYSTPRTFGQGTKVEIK

ELISA (T/B): 10.5
B14: M27-F04 (Fab, V domains shown)
VH: EVQLLESGGGLVQPGGSLRLSCAASGFTFSWYPMTWVRQAPGKGLEWVSSIGPSGGQTIYADSVKGRFTISRDNSKNTLYLQMNSLRAEDTAVYYCTTEYGDYGGGFDPWGQGTLVTVSS
VL: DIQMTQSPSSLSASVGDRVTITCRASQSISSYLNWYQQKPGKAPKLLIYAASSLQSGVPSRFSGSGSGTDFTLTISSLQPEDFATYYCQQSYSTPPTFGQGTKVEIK

ELISA (T/B): 2.3
B15: M27-B12 (Fab, V domains shown)
VH: EVQLLESGGGLVQPGGSLRLSCAASGFTFSWYQMMWVRQAPGKGLEWVSSISPSGGITEYADSVKGRFTISRDNSKNTLYLQMNSLRAEDTAVYYCARDRSSGWYYYGMDVWGQGTTVTVSS
VL: QYELTQPPAVSVSPGQTATITCSGDKLGDEYAAWYQQKPGQSPVLVIYQDRKRPSGIPERFSGSNFGNTATLTITGTQVMDEADYYCQAWGKRNVVFGGGTKLTVL

ELISA (T/B): 33.1
B16: M27-B01 (Fab, V domains shown)
VH: EVQLLESGGGLVQPGGSLRLSCAASGFTFSDYTMWWVRQAPGKGLEWVSSISSSGGITFYADSVKGRFTISRDNSKNTLYLQMNSLRAEDTAVYYCARSADTAMGGAFDIWGQGTMVTVSS
VL: not shown

ELISA (T/B): 12.4
B17: M27-H10 (Fab, V domains shown)
VH: EVQLLESGGGLVQPGGSLRLSCAASGFTFSAYQMAWVRQAPGKGLEWVSVIYSSGGYTDYADSVKGRFTISRDNSKNTLYLQMNSLRAEDTAVYYCARHNWNDGAFDIWGQGTMVTVSS
VL: DIQMTQSPSSLSASVGDRVTITCRASQSISNYLNWYQQKPGKAPKFLIYAASSLQSGVPSRFSGSGSGTDFTLSISSLQPEDFATYYCQQSYSTPQTFGQGTKVEMK

— patent publication US20260176378A1 (DYAX, published 2026)
